T1: recombinant human PD-L2 (human, UniProt Q9BQ51 20-220)
T1 construct: also called B7 family member
T1 sequence (looked up): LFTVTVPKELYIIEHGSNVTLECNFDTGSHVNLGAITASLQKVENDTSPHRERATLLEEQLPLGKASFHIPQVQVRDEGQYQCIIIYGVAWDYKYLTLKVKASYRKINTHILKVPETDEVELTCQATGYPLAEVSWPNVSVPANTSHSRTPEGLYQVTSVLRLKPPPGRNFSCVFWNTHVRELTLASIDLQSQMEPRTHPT

T2: recombinant mouse 4-1BB (mouse, UniProt P20334 24-187)
T2 construct: Bought protein, coated on ELISA plate
T2 sequence (looked up): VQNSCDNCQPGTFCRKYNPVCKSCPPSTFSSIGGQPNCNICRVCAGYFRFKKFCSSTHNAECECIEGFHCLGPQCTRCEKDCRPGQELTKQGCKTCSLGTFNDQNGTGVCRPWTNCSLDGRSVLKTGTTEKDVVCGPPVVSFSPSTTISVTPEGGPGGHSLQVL

T3: recombinant human LAG-3 (human, UniProt P18627 23-450)
T3 sequence (looked up): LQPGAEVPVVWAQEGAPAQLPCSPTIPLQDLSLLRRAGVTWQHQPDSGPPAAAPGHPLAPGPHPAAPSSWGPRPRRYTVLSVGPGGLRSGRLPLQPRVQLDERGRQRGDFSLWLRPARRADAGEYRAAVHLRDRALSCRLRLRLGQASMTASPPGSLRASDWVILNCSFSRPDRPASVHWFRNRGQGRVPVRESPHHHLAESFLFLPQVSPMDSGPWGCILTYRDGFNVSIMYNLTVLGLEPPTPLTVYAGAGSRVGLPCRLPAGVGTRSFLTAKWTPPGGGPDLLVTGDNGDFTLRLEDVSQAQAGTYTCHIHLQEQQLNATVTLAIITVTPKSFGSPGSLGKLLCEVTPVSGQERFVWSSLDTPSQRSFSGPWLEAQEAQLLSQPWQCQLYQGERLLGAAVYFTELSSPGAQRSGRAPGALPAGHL

T4: recombinant human ICOS (human, UniProt Q9Y6W8 21-141)
T4 construct: also called CD28 family member
T4 sequence (looked up): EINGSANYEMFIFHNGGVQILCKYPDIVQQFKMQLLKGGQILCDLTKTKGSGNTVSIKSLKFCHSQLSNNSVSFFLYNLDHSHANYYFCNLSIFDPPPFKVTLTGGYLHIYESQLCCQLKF

T5: recombinant human OX40 (human, UniProt P43489 29-216)
T5 sequence (looked up): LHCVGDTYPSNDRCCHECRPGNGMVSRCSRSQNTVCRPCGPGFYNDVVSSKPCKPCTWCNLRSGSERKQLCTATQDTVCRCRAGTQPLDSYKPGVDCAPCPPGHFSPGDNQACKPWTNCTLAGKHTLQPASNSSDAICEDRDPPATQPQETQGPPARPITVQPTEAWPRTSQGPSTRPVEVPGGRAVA

T6: recombinant human CD86 (human, UniProt P42081 24-245, limits assumed)
T6 construct: also called B7 family member
T6 sequence (looked up): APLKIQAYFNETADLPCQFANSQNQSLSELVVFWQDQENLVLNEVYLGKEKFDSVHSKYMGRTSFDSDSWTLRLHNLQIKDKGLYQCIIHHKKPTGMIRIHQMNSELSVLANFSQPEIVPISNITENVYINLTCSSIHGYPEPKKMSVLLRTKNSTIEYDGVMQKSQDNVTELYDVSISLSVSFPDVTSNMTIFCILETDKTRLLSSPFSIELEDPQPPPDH

T7: recombinant human B7-H2 (human, UniProt O75144 19-256, limits assumed)
T7 construct: also called B7 family member
T7 sequence (looked up): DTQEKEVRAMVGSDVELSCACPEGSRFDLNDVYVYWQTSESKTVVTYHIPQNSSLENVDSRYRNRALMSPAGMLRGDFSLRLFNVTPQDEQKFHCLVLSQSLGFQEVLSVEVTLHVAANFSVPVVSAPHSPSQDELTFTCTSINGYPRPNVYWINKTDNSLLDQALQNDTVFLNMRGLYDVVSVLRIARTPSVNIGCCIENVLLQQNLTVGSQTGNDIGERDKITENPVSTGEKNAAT

T8: recombinant human CD80 (human, UniProt P33681 35-242)
T8 construct: also called B7 family member
T8 sequence (looked up): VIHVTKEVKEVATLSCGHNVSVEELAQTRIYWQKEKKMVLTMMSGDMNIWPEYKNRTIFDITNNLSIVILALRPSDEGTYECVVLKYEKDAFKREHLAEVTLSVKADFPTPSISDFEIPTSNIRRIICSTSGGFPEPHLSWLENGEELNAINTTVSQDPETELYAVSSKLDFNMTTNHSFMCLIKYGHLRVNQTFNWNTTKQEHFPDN

B1: chimeric anti-human 4-1BB monoclonal antibody mAb-33-83 (antibody, human IgG4 S228P, kappa, V domains shown)
VH: QVQLQQPGAELVRPGASMKLSCKASGYTFTSYWINWVKQRPGQGLEWIGNIYPSDSYTNYNQKFKDKATLTVDKSSSTAYMQLSSPTSEDSAVYYCTRLYYGSSPFDYWGQGTTLTVSS
VL: DIQMTQTTSSLSASLGDRVTISCRASQDISNYLNWYQQKPDGTVKLLIYHTSRLHSGVPPRFSGSGSGTNYSLTISNLEQEDIATYFCQQGHTLPRTFGGGTKLEIKR
notes: expressed in ExpiCHO cells; also called Chimeric mAbs
B2: humanized anti-human 4-1BB monoclonal antibody BH3145b (antibody, human IgG4 S228P, kappa, V domains shown)
VH: QVQLVQSGAEVKKPGSSVKVSCKASGYTFTSYWINWVRQAPGQGLEWMGNIYPSDSYTNYNQKFKDRVTITADKSTSTAYMELSSLRSEDTAVYYCARLYYGSSPFDYWGQGTTVTVSS
VL: DIQMTQSPSSLSASVGDRVTITCRASQDISNYLNWYQQKPGKVPKLLIYHTSRLHSGVPSRFSGSGSGTDFTLTISSLQPEDVATYYCQQGHTLPRTFGGGTKVEIKR
notes: also called z0

Experiments:
recombinant human CD27 = recombinant human CD27 (human, UniProt P26842 20-192); assay: ELISA, coated antigen 1 µg/mL
recombinant human CD27, sequence (P26842 20-192 limits assumed): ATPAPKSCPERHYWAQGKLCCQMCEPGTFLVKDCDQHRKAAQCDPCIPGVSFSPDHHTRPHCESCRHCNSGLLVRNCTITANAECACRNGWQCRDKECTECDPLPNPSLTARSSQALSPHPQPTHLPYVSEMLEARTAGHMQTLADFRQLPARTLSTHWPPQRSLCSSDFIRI

recombinant human BTLA = biological target: T9, recombinant human BTLA (human, UniProt Q7Z6A9 31-157, limits assumed); assay: ELISA, coated antigen 1 µg/mL
T9 construct: also called CD28 family member

recombinant human PD-L2 = biological target: T1, recombinant human PD-L2; assay: ELISA, coated antigen 1 µg/mL
recombinant human TIM-3 = recombinant human TIM-3 (human, UniProt Q8TDQ0 22-200); assay: ELISA, coated antigen 1 µg/mL
recombinant mouse 4-1BB = biological target: T2, recombinant mouse 4-1BB; assay: ELISA, coated antigen 1 µg/mL
recombinant human LAG-3 = biological target: T3, recombinant human LAG-3; assay: ELISA, coated antigen 1 µg/mL
recombinant human CTLA4 = recombinant human CTLA4 (human, UniProt P16410 36-162); assay: ELISA, coated antigen 1 µg/mL
recombinant human CTLA4, sequence (P16410 36-162 limits assumed): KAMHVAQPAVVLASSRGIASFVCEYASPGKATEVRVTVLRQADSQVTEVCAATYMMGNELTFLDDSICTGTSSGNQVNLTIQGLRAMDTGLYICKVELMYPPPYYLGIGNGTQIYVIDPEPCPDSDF

recombinant human ICOS = biological target: T4, recombinant human ICOS; assay: ELISA, coated antigen 1 µg/mL
recombinant human CD28 = biological target: T10, recombinant human CD28 (human, UniProt P10747 19-152); assay: ELISA, coated antigen 1 µg/mL
T10 construct: also called CD28 family member

recombinant human OX40 = biological target: T5, recombinant human OX40; assay: ELISA, coated antigen 1 µg/mL
recombinant human CD86 = biological target: T6, recombinant human CD86; assay: ELISA, coated antigen 1 µg/mL
recombinant human PDI = biological target: T11, recombinant human PDI (human, UniProt Q15116 25-167); assay: ELISA, coated antigen 1 µg/mL
T11 construct: also called PD1 (printed 'PDI'); CD28 family member
T11 sequence (Q15116 25-167 limits assumed): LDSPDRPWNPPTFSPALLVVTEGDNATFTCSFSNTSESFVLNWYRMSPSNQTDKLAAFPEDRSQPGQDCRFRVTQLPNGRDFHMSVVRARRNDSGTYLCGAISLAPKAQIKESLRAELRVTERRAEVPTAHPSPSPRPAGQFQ

recombinant human B7-H2 = biological target: T7, recombinant human B7-H2; assay: ELISA, coated antigen 1 µg/mL
recombinant human CD80 = biological target: T8, recombinant human CD80; assay: ELISA, coated antigen 1 µg/mL
[1] = biological target: T12, recombinant human 4-1BB (Sino Biological Inc., catalog number 10041-H08H) (human, UniProt Q07011 24-186); assay: ELISA, coated recombinant human 4-1BB, steps of Example 4
T12 construct: Bought protein coated on ELISA plates; treated as the same molecule; also called recombinant human 4-1BB-His protein; CD137
T12 sequence (Q07011 24-186 limits assumed): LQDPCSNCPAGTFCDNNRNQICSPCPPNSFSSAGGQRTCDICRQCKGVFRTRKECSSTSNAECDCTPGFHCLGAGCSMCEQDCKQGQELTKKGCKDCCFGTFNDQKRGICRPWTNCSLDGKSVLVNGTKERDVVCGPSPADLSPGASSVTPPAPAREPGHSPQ

Row | binding result (recombinant human CD27) | binding result (recombinant human BTLA) | binding result (recombinant human PD-L2) | binding result (recombinant human TIM-3) | binding result (recombinant mouse 4-1BB) | binding result (recombinant human LAG-3) | binding result (recombinant human CTLA4) | binding result (recombinant human ICOS) | binding result (recombinant human CD28) | binding result (recombinant human OX40) | binding result (recombinant human CD86) | binding result (recombinant human PDI) | binding result (recombinant human B7-H2) | binding result (recombinant human CD80) | binding result [1] | Binder
1 | no binding | no binding | no binding | no binding | no binding | no binding | no binding | no binding | no binding | no binding | no binding | no binding | no binding | no binding | – | B1
2 | – | – | – | – | – | – | – | – | – | – | – | – | – | – | binds | B2

Source: patent US20250277044A1 (BEIJING HANMI PHARMACEUTICAL, published 2025)
